In patent US20230226096A1 (Orna Therapeutics, Inc., priority 2020, published 2023):

B1: Murine Kobuvirus 1 (nucleic acid, listed as Kobuvirus sp.)
DNA: GTAACTTCAAGTGTGTGTGCTCGTAATCTTGACTCCTGCCGGAATGCCGCCCGGTTCAGTGAACAAACAGCTAGGCAAGTCCCTCCCTTCCCCTGTGGTCGGTTCTCACCGGCCACCATCCCTCCCCCAGCCTGACGTGTTACAGGCTGTGCAAAGCCCCCGCGAAAGCTGCTCACGTGGCAATTGTGGGTCCCCCCTTTGTCAAGACACCGAGTCTTTCTCCCTTAAGGCTAGCCCGGTCCCACGAACGTGGAACTGGCAACTAGTGGTGTCACTACACGCCTCCGACCTCGGACGCGGAGTGCTGTTCCCCAAGCTGTAACCCTGACCCAAGACTGTGCTGCCTGGCAAGCACCGTCTGGGAAGATGTTCCGCTGTGGCTGCCAAACCTGGTAACAGGTGCCCCAGTGTGTGTAGTCTTCCTCCAGTCTCCGGACTGGCAGTCTTGTGTAAAGATGCAGTGTAAGGTTCAAGTGCCAAATCCCTGGAAGGAGTGACCCTCTACTGCCCTAGGAATGCTGTGCAGGTACCCCCAACTTCGGTTGGGGATCTGAGCACAGGCTAATTGTCTACGGGTAGTTTCATTTCCCATCCTCTCTTTTTTGGCATC
B2: Human enterovirus 109 (nucleic acid, listed as Enterovirus sp.)
DNA: TTTAAAACAGCCTGGGGGTTGTTCCCACCCCCAGGGCCCACTGGGCGTTAGTACTCTGGTATCGCGGTACCTTAGTATGCCTGTTTTATGTCTCCTTTCCCCCGCAACTTTAGAAGTAATCAAGTTATGGCTCAACAGTCGCCACACCCCCAGTGTGGTTCCGAGCAAGCACTTCTGTTCCCCGGTTGCGTCTTATATGCTGTGTGAACGGCAGAAAGGGACAATATCGTTATCCGCTCAACTACTACGGGAAGCCTAGTACCACCATGGATTGACCTGAAAGTTGCGTTCAGCGCACCCCCAGCGCAGCTCAGGCCGATGAGGCTCCGAATACCCCACGGGCGACCGTGTCGGAGCCTGCGTTGGCGGCCTGCCCACGTTGCAAAACGTGGGACGCTCATTTCATGACATGGTGCGAAGAGCCTACTGTGCTAGTTGAGAGTCCTCCGGCCCCTGAATGTGGATAATCCTAACCACTGAACCTACGGGCGCAAACCAGCGTCTGGTAGGCCGTAACGCGCAAGTCGGTGGCGGAACCAACTACTTTGGGTGTCCGTGTTTCCTTTTATCTTTTTGAATGTTTATGGTGACAATTGTTGTGTACAGTTGTTACCATAGTTTGCATTCAGAAATAAACCTAACACTTTCCAATTATTTGTTACA
B3: Human enterovirus C105 (nucleic acid, listed as Enterovirus sp.)
DNA: CCCCTAGGATCCACTGGATGTCAGTACACTGGTATCGTGGTACCTTTGTACGCCTGTTTTATACCCCCTTCCCCGCAACTTTAGAAGCATCAAAAGCACCGCTCAATAGTCACCACACCCCCAGTGTGGTTTCGAGCAAGCACTTCTGTTTTCCCGGTTGCGTCCCATATGCTGTGCAAACGGCAAAAAGGGACAATATCGTTACCCGCTTGTATACTACGGGAAACCTAGTACCACCATTGATTGTGTTGAGAGTTGCGCTCATCACCTTTCCCCGGTGTAGCTCAGGCCGATGAGGCTCAGAATCCCCCACAGGTGACTGTGTCTGAGCCTGCGTTGGCGGCCTGCCCTCGCCTTATGGCGTGGGACGCTTGATACATGACATGGTGCGAAGAGTCTACTGTGCTATGCAAGAGTCCTCCGGCCCCTGAATGTGGCTAATCCTAACCACTGATCCCACGCACGCAAACCAGTGTGTAGTGGGTCGTAACGCGCAAGTCGGTGGCGGAACCAACTACTTTGGGTGACCGTGTTTCCTTTATTACTTATTGAATGTTTATGGTGACAATTGTTTGATTCAGTTGTTGCCATTCTCTACATTCATTTACCCAGCATCAAACCAATTGAACTGTTACA
B4: Aichivirus DV (nucleic acid, listed as Aichivirus sp.)
DNA: TACTCCATTCAGCTTCTTCGGAACCTGTTCGGAGGAATTAAACGGGCACCCATACACCCCCACCCCCTTTTCTGCAACTTAAGTATGTGTGCTCGTAATCTTGACTCCCACGGAACGGATCGATCCGCTGGAGAACAAACTGCTAGATCCACATCCTCCCTTCCCCTGGGAGGACCCCGGTCCTCCCACATCCTCCCCCCAGCCTGACGTAACACAGGCTGTGTGAAGTCCCCGCGAAAGCTGCTCACGTGGCAATTGTGGGTCCCCCCTTCACCAAGACACCAGGTCTTTCCTCCTTAAGGCTAGCCCCGATGTGTGAATTCACATTGGGCAACTAGTGGTGTCACTGTGCGCTCCCAATCTCGGCCGCGGAGTGCTGTTCCCCAAGCCAAACCCCTGGCCCTTCACTATGTGCCTGGCAAGCATATCTGAGAAGGTGTTCCGCTGTGGCTGCCAGCCTGGTAACAGGTGCCCCAGTGTGCGTAACCTTCTTCCGTCTCCGGACGGTAGTGATTGGTTAAGATTTGGTGTAAGGTTCATGTGCCAACGCCCTGTGCGGGATGAAACCTCTACTGCCCTAGGAATGCCAGGCAGGTACCCCACCTTCGGGTGGGATCTGAGCCTGGGCTAATTGTCTACGGGTAGTTTCATTTCCAATTCTTTTATGTCGGAGTC
B5: Bovine picornavirus (nucleic acid)
DNA: TTTTCTCCCCTCCCCCTCCAACTACCTTTTCCCCCTCTTGTAACGCTAGAAGTTTGTGCAAACCGCCTGTAGGGTACTGCAATCCAGCAGTGCATAGGCTAAGCTTTTCTTGTTACCCCACCCCACATTATACTGAGGAGGATTGTGAAATTGTGTTAGTATGGGTTAGTAGCGGTGACCCGGGTAACCCCAACCCAGAAACTCACGGATGAGATGAACAGGACCCCACATGGTAACGTGTGTGTTCGTCTGCCCCGCAAGGTGAGGCCGTGAGAGCTTTGCACGCGAAAACCTTGAAAACCCAAAAGTACCTTGAGCTCTTCGCTATTTTGTGTTTCCTCCAGGACCCTGAATGCGGCTAAACCTAACCCGCGATCCGCACGTAGCAACCCAGCTAGAGTGTGGTCGTAATGCGCAAGTTGCGGGCGGTACCGACTACTTTGGTGTTCCTGTGTTTCCTTTATTTTATTTTGAATTTTTATGGTGACAACAGCTAGAAAATAAGAGTGAAC
B6: Aichivirus KVGH (nucleic acid, listed as Aichivirus sp.)
DNA: TACTCCATTCAGCTTCTTCGGAACCTGTTCGGAGGAATTAAACGGGCACCCATACTCCCCCCCACCCCCCTTTTGTAACTAAGTATGTGTGCTCGTGACCTTGACTCCCACGGAACGGACCGATCCGTTGGTGAACAAACAGCTAGGTCCACATCCTCCTTTCCCCTGGGAGGGTCCCCGCCCTCCCACATCCCCCCCCCAGCCTGACGTGTCACAGGCTGTGTGAAGCCCCCGCGAAAGCTGCTCACGTGGCAATTGTGGGTCCCCCCTTCATCAAGACACCAGGTCTTTCCTCCTTAAGGCTAGCCCCGGCGTGTGAACTCACGTTGGGCAACTAGTGGTGTCACTGTGCGCTCCCAATCTCGGCCGCGGAGTGCTGTTCCCCAAGCCAAACCCCTGGCCCTTCACTATGTGCCTGGCAAGCACACCTGAGAAGGTGTTCCGCTGTGGCTGCCAGCCTGGTAACAGGTGCCCCAGTGTGCGTAACCTTCTTCCGTCTTCGGACGGTGGTGATTGGTTAAGATTTGGTGTAAGGTTCATGTGCCAACGCCCTGTGCGGGATGAAACCTCTACTGCCCTAGGAATGCCAGGCAGGTACCCCACCTTCGGGTGGGATCTGAGCCTGGGCTAATTGTCTACGGGTGGTTTCATTTCCAATTCTTTCATGTCGGAGTC

These molecules were tested on HEK293 cells. Settings: luminescence from secreted Gluc in supernatant 24 hours after transfection of HEK293 cells; circular RNA encoding Gluc with the named IRES (UTR truncated to 675 nt).
Format: cell-based, human

| Molecule | Expression |
| --- | --- |
| B1 | 1.60E+07 |
| B2 | 4.92E+05 |
| B3 | 5.49E+05 |
| B4 | 7.79E+07 |
| B5 | 3.82E+06 |
| B6 | 1.72E+07 |
